Measurements taken from paper PMC8673838, “MCPH1 inhibits Condensin II during interphase by regulating its SMC2-Kleisin interface” (eLife, 2021).

What was measured:
[1] = molecular target: condensin II pentamer;MCPH1 1-435-MBP (Homo sapiens;Homo sapiens, UniProt O95347;Q9NTJ3;Q6IBW4;P42695;Q86XI2;Q8NEM0 …, |); test: EMSA; condensin II bands shifted upward with MCPH1 1-435-MBP; EMSA with 50 nM 5'-Cy5 50 bp dsDNA; EMSA buffer, salt, pH and temperature not given in the material; conditions: protein: recombinant;recombinant; tags: Strep tag;N-term 6xHis, C-term MBP; copies: 1;1;1;1;1;1; label: 5' Cy5; blunt
[2] = molecular target: T1, MCPH1 1-435-MBP (Homo sapiens, UniProt Q8NEM0 1-435); test: EMSA; 50 nM DNA; EMSA with 50 nM 5'-Cy5 50 bp dsDNA; EMSA buffer, salt, pH and temperature not given in the material; conditions: protein: recombinant; tags: N-term 6xHis, C-term MBP; label: 5' Cy5; blunt
T1 sequence: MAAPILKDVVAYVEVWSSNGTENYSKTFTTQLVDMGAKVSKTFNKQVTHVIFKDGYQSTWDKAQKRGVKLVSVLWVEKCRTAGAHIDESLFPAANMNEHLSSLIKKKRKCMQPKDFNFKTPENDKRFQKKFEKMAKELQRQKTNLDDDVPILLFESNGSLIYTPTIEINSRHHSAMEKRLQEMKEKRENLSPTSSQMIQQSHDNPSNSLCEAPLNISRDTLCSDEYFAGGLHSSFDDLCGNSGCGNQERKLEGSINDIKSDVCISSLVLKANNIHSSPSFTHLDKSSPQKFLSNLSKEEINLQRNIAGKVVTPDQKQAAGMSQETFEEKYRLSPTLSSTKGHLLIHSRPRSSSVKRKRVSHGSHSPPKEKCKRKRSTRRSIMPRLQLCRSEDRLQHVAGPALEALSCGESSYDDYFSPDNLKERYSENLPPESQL

[3] = molecular target: condensin II pentamer (Homo sapiens, UniProt O95347;Q9NTJ3;Q6IBW4;P42695;Q86XI2 1-1197;1-1288;1-605;1-1498;1-1143); test: EMSA; with MBP control or without peptide; EMSA with 50 nM 5'-Cy5 50 bp dsDNA; EMSA buffer, salt, pH and temperature not given in the material; conditions: protein: recombinant; tags: Strep tag; copies: 1;1;1;1;1; label: 5' Cy5; blunt

Measured: binding result

B1: 50 bp dsDNA (dsDNA)
DNA 1: CTGTCACACCCTGTCACACCCTGTCACACCCTGTCACACCCTGTCACACC
DNA 2: GGTGTGACAGGGTGTGACAGGGTGTGACAGGGTGTGACAGGGTGTGACAG
binds: [1] | [2] | [3]
